Measurements taken from patent US20260250421A1.

Molecular target: His-tagged dog TROP2 protein (dog)
Assay: SPR Biacore 8K, Ab on Protein A chip

Binder	Kd	koff	kon
DS-1062 analog-LALA (antibody, V domains shown) VH: QVQLVQSGAEVKKPGASVKVSCKASGYTFTTAGMQWVRQAPGQGLEWMGWINTHSGVPKYAEDFKGRVTISADTSTSTAYLQLSSLKSEDTAVYYCARSGFGSSYWYFDVWGQGTLVTVSS VL: DIQMTQSPSSLSASVGDRVTITCKASQDVSTAVAWYQQKPGKAPKLLIYSASYRYTGVPSRFSGSGSGTDFTLTISSLQPEDFAVYYCQQHYITPLTFGQGTKLEIKR	27.2 nM	0.000812 s⁻¹	29900 M⁻¹ s⁻¹
Sacituzumab analog (antibody, V domains shown) VH: QVQLQQSGSELKKPGASVKVSCKASGYTFTNYGMNWVKQAPGQGLKWMGWINTYTGEPTYTDDFKGRFAFSLDTSVSTAYLQISSLKADDTAVYFCARGGFGSSYWYFDVWGQGSLVTVSS VL: DIQLTQSPSSLSASVGDRVSITCKASQDVSIAVAWYQQKPGKAPKLLIYSASYRYTGVPDRFSGSGSGTDFTLTISSLQPEDFAVYYCQQHYITPLTFGAGTKVEIKR	42 nM	0.00858 s⁻¹	204000 M⁻¹ s⁻¹
